We go through one substance from patent US20210206877A1.

The target of this test is BACE1 endogenous to primary cortical neurons from E16.5 CD1 mice (mouse) (UniProt P56818). Nature of the test: cell-based or functional assay.
Chain of BACE1 endogenous to primary cortical neurons from E16.5 CD1 mice (mouse) (P56818 46-501): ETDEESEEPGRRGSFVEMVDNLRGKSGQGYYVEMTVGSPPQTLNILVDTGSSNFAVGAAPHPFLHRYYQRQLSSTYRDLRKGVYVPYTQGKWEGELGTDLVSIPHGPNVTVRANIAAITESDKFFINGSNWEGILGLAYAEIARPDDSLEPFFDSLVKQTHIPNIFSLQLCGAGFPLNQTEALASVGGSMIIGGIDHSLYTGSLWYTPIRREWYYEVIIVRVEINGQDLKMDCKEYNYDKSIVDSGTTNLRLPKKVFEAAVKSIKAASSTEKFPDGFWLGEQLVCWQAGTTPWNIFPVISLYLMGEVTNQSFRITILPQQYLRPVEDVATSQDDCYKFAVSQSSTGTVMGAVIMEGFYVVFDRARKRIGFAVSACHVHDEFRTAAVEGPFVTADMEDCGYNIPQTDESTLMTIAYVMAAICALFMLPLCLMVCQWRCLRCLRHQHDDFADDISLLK

For antibody YW412.8.31, the IC50, inhibition of Aβx-40 production in primary mouse cortical neuron cultures (sandwich ELISA of supernatants) came to 2.9 nM and the maximum inhibition of Aβx-40 production in primary mouse cortical neuron cultures came to 62%.
